Among the data in PMC5474692 are stoichiometry N values, retold here.

Where two headings read alike, the source gives them in different places.

What all share (test): fluorescence anisotropy against solution viscosity
For orientation: Polarisation of emitted light reports the rotation of a fluorescent probe.

The target in one assay is amFP486/K68M (UniProt Q9U6Y6).
Assay [1] addresses Rosmarinus.
Assay [2] addresses Rosmarinus. The source holds these as a separate data set.
For assay [3], the target named is Rosmarinus. The source holds these as a separate data set.
The next assay has as its target eqFP486.

The stoichiometry N is a count of units in the complex or per binding partner.

In the case of “amFP486/K68M (from UniProt Q9U6Y6 1-229) (natural protein)”, in the assay with amFP486/K68M, the stoichiometry N worked out at 4. Take Rosmarinus: the stoichiometry N with Rosmarinus [1] worked out at 4; in the assay with Rosmarinus [2], 4; in the assay with Rosmarinus [3], 2. As for eqFP486 (natural protein), the stoichiometry N with eqFP486 worked out at 2.
